Measured values as given in patent US20200102388A1 (NEW YORK UNIVERSITY, published 2020).
Where a chain is given by its changes, count along the chain named. Like-named read-outs stand apart in the source and are kept apart here. One block for each binder: values may come before it.

Legend:
[1] = molecular target: T1, γδ1 TCR containing the delta1C chain (human, biotinylated in vitro using recombinant BirA (AviTag)); assay: SPR (Pioneer, OneStep): biotinylated TCR immobilised on a neutravidin-loaded Avicap chip, IgG flowed; apparent KD
T1 construct: also called biotinylated TCR sample; gamma/delta1 TCR; not shown: Fc portion of mouse IgG; AviTag; His6 tag; TCR gamma chain fused to mouse IgG Fc

[2] = molecular target: T1, γδ1 TCR containing the delta1C chain; assay: as above; remark: listed apart in the source
Protocol: (§1) The affinity of the antibodies was assessed using surface plasmon resonance (SPR). A biotinylated TCR sample was immobilized on an Avicap chip (Pall ForteBio) that had been preloaded with neutravidin (ThermoFisher). IgG samples were flowed using the OneStep method on a Pioneer SPR instrument (Pall ForteBio).

[3] = molecular target: T2, heterodimer containing Delta1C and gamma 8, Fc-fusion protein (human); assay: ELISA on gamma/delta TCR-Fc heterodimers immobilised on a microtiter plate, probed with the clone named over the panel (control panel: No Phage)
T2 construct: the assay paragraph says only gamma 8; also called Delta1C/Gamma8; not shown: Fc portion of mouse IgG; AviTag; His6 tag

[4] = molecular target: T3, heterodimer containing Delta1C and gamma 3, Fc-fusion protein (human); assay: as above
T3 construct: the assay paragraph says only gamma 3; also called Delta1C/Gamma3; not shown: Fc portion of mouse IgG; AviTag; His6 tag

[5] = molecular target: T2, heterodimer containing Delta1C and …; assay: as above; remark: listed apart in the source
[6] = molecular target: T3, heterodimer containing Delta1C and …; assay: as above; remark: listed apart in the source
[7] = molecular target: T2, heterodimer containing Delta1C and …; assay: as above; remark: listed apart in the source
[8] = molecular target: T3, heterodimer containing Delta1C and …; assay: as above; remark: listed apart in the source
[9] = molecular target: T1, γδ1 TCR containing the delta1C chain; assay: SPR (Pioneer, OneStep): biotinylated TCR immobilised on a neutravidin-loaded Avicap chip, IgG flowed; apparent KD; remark: listed apart in the source
Protocol: as §1

[10] = molecular target: T2, heterodimer containing Delta1C and …; assay: ELISA on gamma/delta TCR-Fc heterodimers immobilised on a microtiter plate, probed with the clone named over the panel (control panel: No Phage); remark: listed apart in the source
[11] = molecular target: T3, heterodimer containing Delta1C and …; assay: as above; remark: listed apart in the source
[12] = molecular target: T1, γδ1 TCR containing the delta1C chain; assay: SPR (Pioneer, OneStep): biotinylated TCR immobilised on a neutravidin-loaded Avicap chip, IgG flowed; apparent KD; remark: listed apart in the source
Protocol: as §1

[13] = molecular target: T2, heterodimer containing Delta1C and …; assay: ELISA on gamma/delta TCR-Fc heterodimers immobilised on a microtiter plate, probed with the clone named over the panel (control panel: No Phage); remark: listed apart in the source
[14] = molecular target: T3, heterodimer containing Delta1C and …; assay: as above; remark: listed apart in the source
[15] = molecular target: T1, γδ1 TCR containing the delta1C chain; assay: SPR (Pioneer, OneStep): biotinylated TCR immobilised on a neutravidin-loaded Avicap chip, IgG flowed; apparent KD; remark: listed apart in the source
Protocol: as §1

[16] = molecular target: T2, heterodimer containing Delta1C and …; assay: ELISA on gamma/delta TCR-Fc heterodimers immobilised on a microtiter plate, probed with the clone named over the panel (control panel: No Phage); remark: listed apart in the source
[17] = molecular target: T3, heterodimer containing Delta1C and …; assay: as above; remark: listed apart in the source
[18] = molecular target: T1, γδ1 TCR containing the delta1C chain; assay: SPR (Pioneer, OneStep): biotinylated TCR immobilised on a neutravidin-loaded Avicap chip, IgG flowed; apparent KD; remark: listed apart in the source
Protocol: as §1

T1 sequence (main, as listed by the source): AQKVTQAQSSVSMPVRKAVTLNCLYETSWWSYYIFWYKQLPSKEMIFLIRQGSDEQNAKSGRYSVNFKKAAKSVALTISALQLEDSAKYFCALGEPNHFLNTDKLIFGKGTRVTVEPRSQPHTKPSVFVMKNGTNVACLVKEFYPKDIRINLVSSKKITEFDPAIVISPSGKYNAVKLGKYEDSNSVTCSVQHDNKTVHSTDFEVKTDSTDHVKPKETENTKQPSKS
T3 sequence (V domain, as listed by the source, chain 1 of 2): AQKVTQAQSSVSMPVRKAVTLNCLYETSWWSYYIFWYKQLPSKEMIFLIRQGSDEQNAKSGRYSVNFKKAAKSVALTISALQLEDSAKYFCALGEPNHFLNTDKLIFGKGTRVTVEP
T3 sequence (V domain, as listed by the source, chain 2 of 2): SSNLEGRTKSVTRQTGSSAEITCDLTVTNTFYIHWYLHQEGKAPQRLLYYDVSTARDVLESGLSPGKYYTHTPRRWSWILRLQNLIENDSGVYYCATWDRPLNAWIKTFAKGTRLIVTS
T2 sequence (V domain, as listed by the source, chain 1 of 2): as the sequence (V domain, as listed by the source, chain 1 of 2) above
T2 sequence (V domain, as listed by the source, chain 2 of 2): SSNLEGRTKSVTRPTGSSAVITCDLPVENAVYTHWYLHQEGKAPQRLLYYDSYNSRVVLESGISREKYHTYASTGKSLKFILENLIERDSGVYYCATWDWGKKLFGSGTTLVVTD

binding result [5]: no binding
binding result [6]: binds
B4: Delta 1-15 (antibody, V domains shown)
VH: EVQLVESGGGLVQPGGSLRLSCAASGFTFSSSSIHWVRQAPGKGLEWVASISSSSGSTSYADSVKGRFTISADTSKNTAYLQMNSLRAEDTAVYYCARYSWIYDSWWSGWAMDYWGQGTLVTVSS
VL: DIQMTQSPSSLSASVGDRVTITCRASQSVSSAVAWYQQKPGKAPKLLIYSASSLYSGVPSRFSGSRSGTDFTLTISSLQPEDFATYYCQQSSSSLITFGQGTKVEIKR

binding result [10]: no binding
binding result [11]: no binding
Kd [12]: 24 nM
B6: Delta 1-10 (antibody, V domains shown)
VH: EVQLVESGGGLVQPGGSLRLSCAASGFTFSSSSIHWVRQAPGKGLEWVASISSSSGSTSYADSVKGRFTISADTSKNTAYLQMNSLRAEDTAVYYCARSMVWYWGLNGYEEYAGGMDYWGQGTLVTVSS
VL: B4 VL

binding result [13]: no binding
binding result [14]: no binding
Kd [15]: 10 nM
B7: Delta 1-1 (antibody, V domains shown)
VH: EVQLVESGGGLVQPGGSLRLSCAASGFTVSSSSIHWVRQAPGKGLEWVASISSYYGYTSYADSVKGRFTISADTSKNTAYLQMNSLRAEDTAVYYCAREEWMSYWYWPRYYYYGMDYWGQGTLVTVSS
VL: DIQMTQSPSSLSASVGDRVTITCRASQSVSSAVAWYQQKPGKAPKLLIYSASSLYSGVPSRFSGSRSGTDFTLTISSLQPEDFATYYCQQAALMSPITFGQGTKVEIKR
notes: Tested by SPR as human IgG made in ExpiCHO cells

binding result [16]: no binding
binding result [17]: no binding
Kd [18]: 11 nM
B8: Delta 1-6 (antibody, V domains shown)
VH: EVQLVESGGGLVQPGGSLRLSCAASGFTVYSSSIHWVRQAPGKGLEWVASISPYSGSTSYADSVKGRFTISADTSKNTAYLQMNSLRAEDTAVYYCARMWYLSGWWTGDALDYWGQGTLVTVSS
VL: B7 VL with A91G, A92Y, L93Y, M94S, S95A, P96L

Further lines, the binder ahead of its results:

B1: Delta 1-3 (antibody, V domains shown)
VH: EVQLVESGGGLVQPGGSLRLSCAASGFTLSSSSIHWVRQAPGKGLEWVASIYSSSGYTSYADSVKGRFTISADTSKNTAYLQMNSLRAEDTAVYYCARGLWSVWYYQFYSSMQGMDYWGQGTLVTVSS
VL: B4 VL with S91G, S92Y, S93E, S94Y, L95P, I96L
notes: Tested by SPR as human IgG
Kd [1]: 50 nM

B2: Delta 1-13 (antibody, V domains shown)
VH: EVQLVESGGGLVQPGGSLRLSCAASGFTFSSSSIHWVRQAPGKGLEWVASISSSSGSTSYADSVKGRFTISADTSKNTAYLQMNSLRAEDTAVYYCARTTSYIDEYFGFGWYAMDYWGQGTLVTVSS
VL: B4 VL
Kd [2]: 53 nM

B3: Delta 1-8 (antibody, V domains shown)
VH: EVQLVESGGGLVQPGGSLRLSCAASGFTVSSSSIHWVRQAPGKGLEWVASIYSSSGYTYYADSVKGRFTISADTSKNTAYLQMNSLRAEDTAVYYCARPYYWYPYYYWSGGWEYAAFDYWGQGTLVTVSS
VL: B4 VL with S91Y, S92G, S93E, S94Y, L95P
binding result [3]: binds
binding result [4]: binds

B5: Delta 1-17 (antibody, V domains shown)
VH: EVQLVESGGGLVQPGGSLRLSCAASGFTVSSSSIHWVRQAPGKGLEWVASIYSSSGYTYYADSVKGRFTISADTSKNTAYLQMNSLRAEDTAVYYCARDPGMYYWYYSGSAYEGYGLDYWGQGTLVTVSS
VL: B4 VL with S92G, S93D, S94D
notes: also called Delta1-17 IgG
binding result [7]: binds
binding result [8]: binds
Kd [9]: 7 nM
